B1: GAS2-like protein 1, residues 209 to 276; numbered along this chain, Q99501 (parent)
chain: DELVREILGRCTCPDQFPMIKVSEGKYRVGDSSLLIFVRVLRSHVMVRVGGGWDTLEHYLDKHDPCRC

Variants of: B1
Experiment: abundance fitness (aPCA) (normalised: wild type 0, dead -1); higher = more abundant; growth selection in yeast, the domain comes from the species named
Settings: Homo sapiens

Abundance fitness, by site and new letter:
G30: T -0.569 | L -0.605 | R -0.302 | C -0.532 | D -0.337 | I -0.803 | Q -0.603 | M -0.432 | F -0.927 | P -0.506 | K -0.371 | N -0.526 | A -0.35 | H -0.653 | S -0.53 | E -0.862
G25: I -1.07 | E -0.345 | N -0.116 | D -0.07 | Y -0.388 | S -0.158 | W -0.58 | C -0.236 | K -0.739 | R -0.328 | Q -0.13 | F -0.366 | L -0.914 | P -0.809 | V -0.961
K21: Y -0.525 | Q -0.254 | C -0.543 | M -0.297 | E -0.396 | A -0.748 | I -0.981 | W -0.397 | G -0.689 | R 0.01 | N -0.828 | T -0.739 | P -0.646 | L -0.541 | H -0.426 | D -0.804 | S -0.747 | V -0.791
R28: E -0.516 | N -0.857 | G -0.944 | C -0.159 | H -0.549 | W -0.403 | A -0.235 | Q -0.265 | M 0.041 | I -0.208 | T -0.467 | Y -0.341 | K -0.07 | V -0.15 | F -0.668 | L -0.05 | P -0.964
V22: G -0.916 | A -0.311 | S -0.848 | Y -0.795 | F -0.518 | I -0.035 | D -0.327 | P -0.971 | M -0.251 | R -0.428 | L -0.323 | H -0.26 | C -0.365 | T -0.662
V29: C -0.213 | N -0.793 | R -0.305 | Q -0.501 | H -0.188 | M -0.187 | F -0.163 | G -0.807 | P -0.985 | I 0.129 | E -0.978 | K -0.855 | A -0.34 | W -0.551 | S -0.422 | T -0.531 | Y -0.489
S23: L -0.809 | P -0.914 | M -0.47 | N -0.483 | D 0.028 | V -0.674 | K -0.336 | Q -0.141 | W -0.53 | T -0.036 | E 0.099 | C -0.031 | I -0.861 | R -0.359 | A -0.023 | H -0.325 | F -0.83 | G 0.013
K26: F -0.013 | H -0.035 | G -0.589 | W 0.132 | T 0.149 | L -0.145 | M -0.213 | Q 0.237 | R 0 | C 0.204 | E -0.418 | S -0.075 | V 0.177 | N -0.317 | A -0.063
Y27: M -0.597 | I -0.287 | L -0.849 | W 0.079 | S -0.861 | V -0.996 | G -0.891 | T -0.855 | F -0.579 | R -0.85 | C -0.874 | P -0.866
I20: L -0.151 | G -0.498 | N -0.111 | Q 0.026 | F -0.096 | R -0.009 | H 0.167 | K -0.037 | P -0.917 | Y 0.054 | W 0.008 | V -0.021 | S -0.207
E24: P -0.246 | L -0.715 | V -0.505 | T -0.579 | C -0.588 | H -0.193 | D 0.062 | W -0.422 | R -0.417 | A -0.099 | S -0.254 | Q 0.041

From the Human Domainome abundance scans (Beltran et al. 2025)
